From patent US20100143940A1, “(3R)-HYDROXYACYL-ACP DEHYDRATASE ENZYMES USED IN THE BIOSYNTHESIS OF MYCOLIC ACIDS AND USE OF SAME FOR SCREENING ANTIBIOTICS” (priority 2007, published 2010)

Biological target: T1, 2-trans-octenoyl-ACP, P0A6A8
T1 chain: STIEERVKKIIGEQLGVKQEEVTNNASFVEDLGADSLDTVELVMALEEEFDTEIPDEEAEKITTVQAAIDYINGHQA

B1: Rv0636 protein of M. tuberculosis H37Rv fused with the N-terminal polyhistidine tag (protein)
chain: HHHHHHMALREFSSVKVGDQLPEKTYPLTRQDLVNYAGVSGDLNPIHWDDEIAKVVGLDTAIAHGMLTMGIGGGYVTSWVGDPGAVTEYNVRFTAVVPVPNDGKGAELVFNGRVKSVDPESKSVTIALTATTGGKKIFGRAIASAKLA
For B1, the “specific activity (hydration followed at 263 nm), 2 µM substrate, 311 nM enzyme” value was “no activity of the Rv0636 homodimer could be detected in the presence of octenoyl-ACP”.
